Measurements taken from publication doi:10.1101/197673.

Target: TM-JM peptide of EGFR labelled at the N-terminus with Cy3 or Cy5
Assay: FRET or BRET

percent of peptide dimers with a high FRET efficiency state in the trajectories: 95%
Substance: TM-JM peptide of EGFR labelled at the N-terminus with Cy3 or Cy5
